{"source": "patent US6673902B2", "about": "“Cyclin D binding factor, and uses thereof” (St. Jude Children's Research Hospital, priority 1996, dated 2004)", "key": {"[1]": {"test_system": "281 bp ARF promoter fragment", "assay": "Transactivation of ARF promoter-luciferase reporter in NIH-3T3 cells", "type": "cell-based, mouse", "details": "NIH-3T3, 281 bp ARF promoter fragment-luciferase", "experimental": "Transactivation assays. NIH-3T3 cells were transfected with 4 μg of pGL2-ARFpro BamHI or its DMP1 binding site mutant, with or without increasing amount of pFLEX-DMP1, pEVRFO-Ets1, pCMV-Ets2, pRcRSV-Elfl, pdEB-Fli1, p(IEB-EWS-Fli1 or pCMV-E2F-1 (89-437), and 4 μg β-actin SEAP control vectors [Inoue and Sherr, Mol. Cell. Biol. 18: 1590-1600 (1998); Inoue et al., J. Biol. Chem. 273:29188-29194 (1998); Davis and Roussel, Gene 171:265-269 (1996); Baily et al., Mol. Cell. Biol. 14:3230-3241 (1994)]. Transfections and normalization of luciferase levels with internal control SEAP levels were performed as described [Inoue and Sherr, Mol. Cell. Biol. 18:1590-1600 (1998)].\nSimilarly, DMP1 deletion mutants defective in transactivation [Inoue and Sherr, Mol. Cell. […] Mutation of the DMP1 binding site within the ARF promoter [changing CCCGGATGC, (SEQ ID NO:33) to CCCGTCGAC, (SEQ ID NO:42)] also completely abolished transactivation by wild-type DMP1 (FIG. 14C, mutant reporter). Therefore, sequences within the −189 to −181 ARF promoter segment were the only ones responsible for DMP1-mediated transactivation. Although Ets1 could bind to a 23 base pair oligonucleotide containing the DMP1 consensus site (FIG. 14B), several Ets proteins were unable to induce significant reporter gene expression from the more complex 281 base pair ARF promoter (FIG. 14C). […]"}, "[2]": {"molecular_target": "T1, GST-Ets2 fusion protein (Homo sapiens, UniProt P15036)", "T1 construct": "made in house; host or cells: bacteria", "T1 sequence (P15036 363-443 limits assumed)": "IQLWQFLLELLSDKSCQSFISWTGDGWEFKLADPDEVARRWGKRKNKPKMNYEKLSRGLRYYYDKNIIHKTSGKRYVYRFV", "assay": "EMSA competition with bacterial GST-Ets2 fusion protein", "type": "binding", "details": "excess unlabeled oligonucleotide", "experimental": "(§1) Double-stranded oligonucleotides containing potential DMP1 binding sites (BS1 and BS2) and mutated versions (M1-M4) (FIG. 5B) are end-labeled with ^32P using the Klenow fragment of DNA polymerase and α-^32P-dATP (6000 Ci/mmol; Dupont NEN) (8). Nuclear extracts from mouse NIH-3T3 or CTLL cells are prepared with buffer containing 0.4 M NaCl (2). Mammalian cell extracts (15 μg protein) or Sf9 lysates (corresponding to 5×10^2 infected cells) containing ˜4 ng recombinant DMP1 are mixed with 3 ng of ^32P-labeled probe (1×10^5 cpm) in 15 ul Binding buffer containing 2.5 μg of poly(dI-dC) and 2.5 μg BSA and incubated at 4° C. for 30 minutes. For competition experiments, the indicated amounts of unlabeled oligonucleotides are added to the reactions before addition of the labeled probe. In some experiments, a bacterially produced GST-Ets2 fusion protein containing the complete Ets2 DNA-binding domain (10) is used in place of Sf9 extracts containing recombinant DMP1. Protein-DNA complexes are separated on nondenaturing 4% polyacrylamide gels as described (8). Where indicated, antiserum to DMP1 together with 2.5 μg salmon testis DNA (Sigma; used to reduce nonspecific DNA binding activity caused by serum addition) is preincubated with extracts for 30 minutes at 4° C. prior to initiation of binding reactions. Immune complexes are either removed by adsorption to protein A-Sepharose beads (immunodepletion experiments) or are allowed to remain (“supershift” experiments).\n(§2) Using electrophoretic mobility shift assays (EMSA) performed after mixing a titrated excess (3 ng) of ^32P-end labeled BS1 probe with Sf9 lysates producing DMP1 (˜4 ng recombinant protein per reaction), a BS1-containing protein complex is detected that was competed with an excess of unlabeled BS1 oligonucleotide but not with mutant oligonucleotides M1 and M2 (FIG. 6A). […] More subtle mutations within this region may be tolerated, because high concentrations of M4 competed for BS1 binding to both Ets2 and DMP1 in subsequent studies (FIG. 5B and see below). DMP1 also binds a BS2 probe, and the binding is competed by excess BS2 or BS1 (FIG. 6B). In agreement with the site selection frequencies (FIG. 5A), binding of ^32P-BS1 under equivalent conditions was competed more efficiently by excess unlabeled BS1 than by BS2 (FIG. 6B). […] In agreement, Ets2 binding to BS1 could be competed with excess unlabeled BS1 and M3, but not by BS2 (FIG. 6C). Therefore, although both DMP1 and Ets2 can each bind to BS1 sequences, their exclusive interactions with BS2 and M3, respectively, help to distinguish DMP1 and Ets binding activities (summarized in FIG. 5B)."}, "[3]": {"molecular_target": "T2, recombinant DMP1 (Mus musculus, UniProt Q8CE22)", "T2 construct": "made in house; host or cells: Sf9 insect cells, pAcYM1 baculovirus vector; used as crude lysate (~4 ng DMP1 per reaction)", "T2 sequence (Q8CE22 1-761)": "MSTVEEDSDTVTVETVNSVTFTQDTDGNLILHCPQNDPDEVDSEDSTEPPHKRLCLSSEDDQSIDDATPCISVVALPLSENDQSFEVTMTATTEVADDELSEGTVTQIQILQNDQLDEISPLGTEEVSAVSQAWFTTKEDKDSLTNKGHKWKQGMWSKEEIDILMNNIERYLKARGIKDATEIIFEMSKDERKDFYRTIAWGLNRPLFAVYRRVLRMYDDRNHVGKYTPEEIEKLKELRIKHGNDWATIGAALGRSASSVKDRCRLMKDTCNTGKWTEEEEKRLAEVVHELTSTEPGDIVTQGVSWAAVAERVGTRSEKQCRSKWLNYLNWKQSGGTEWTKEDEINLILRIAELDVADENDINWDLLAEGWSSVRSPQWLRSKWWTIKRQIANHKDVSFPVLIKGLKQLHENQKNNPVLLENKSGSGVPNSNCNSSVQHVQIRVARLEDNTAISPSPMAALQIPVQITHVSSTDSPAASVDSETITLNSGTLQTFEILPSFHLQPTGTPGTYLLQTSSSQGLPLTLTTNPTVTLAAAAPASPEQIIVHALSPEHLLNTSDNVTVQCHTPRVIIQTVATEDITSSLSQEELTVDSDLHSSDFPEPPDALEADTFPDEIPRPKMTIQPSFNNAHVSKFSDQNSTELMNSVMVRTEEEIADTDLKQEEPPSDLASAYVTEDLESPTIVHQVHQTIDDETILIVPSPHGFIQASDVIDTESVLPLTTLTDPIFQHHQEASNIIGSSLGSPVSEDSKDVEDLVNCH", "assay": "EMSA competition with Sf9 lysates producing recombinant DMP1", "type": "binding", "details": "excess unlabeled oligonucleotide", "experimental": "as §1, §2"}}, "data": [{"substance": "DMP1: murine cyclin D-associated myb-like transcription factor, 761 amino acids, SEQ ID NO:1", "values": [{"measurement": "ARF promoter reporter gene expression", "setting": "[1]", "value": "enhanced reporter gene expression"}]}, {"substance": "M3: DMP1 deletion mutant (NcoI), amino acids 1-458 of SEQ ID NO:1", "values": [{"measurement": "competition for BS1 binding to Ets2", "setting": "[2]", "value": "competed"}, {"measurement": "competition for 32P-BS1 probe binding to DMP1", "setting": "[3]", "value": "does not compete"}, {"measurement": "competition for BS2 probe binding to DMP1", "setting": "[3]", "value": "does not compete"}]}]}
